The text below walks through data of US20170089928A1 (SYSMEX, published 2017).

Experiment [1] addresses T1, Heat-denatured BSA (bovine serum albumin autoclaved for 15 minutes) (bovine, UniProt P02769 25-607).
T1 construct: also called heat-denatured BSA solution; reagent for detection
The experiment is described as follows: turbidity (OD550), heat-denatured BSA mixed with rising concentration of C3f.

Experiment [2] has as its target T1, Heat-denatured BSA (bovine serum …). The experiment can be described thus: turbidity (OD550), Hill plot analysis. Here is the method:
(§1) The Kd value and Hill coefficient were calculated for the respective samples.

Experiment [3] shares this target. The experiment is described as follows: turbidity (OD550), heat-denatured BSA mixed with rising concentration of the kininogen fragment. Here is the method:
In the preparation, the sample was mixed so as to obtain a final concentration of the respective peptides in the mixed solutions of 0 to 80 μM.
as §1

Experiment [4] has the same target. The experiment is described as follows: turbidity (OD550), heat-denatured BSA mixed with rising concentration of α-endorphin. Here is the method: In the preparation, the sample was mixed so as to obtain a final concentration of the respective peptides in the mixed solutions of 0 to 150 μM.
The target is the same in experiment [5]. The experiment is described as follows: turbidity (OD550), heat-denatured BSA mixed with rising concentration of the partial ACTH peptide, without nucleic acid. Here is the method: (§2) A comparative mixed solution was prepared by adding to the mixed solution a salmon sperm DNA (trade name: Sonicated Salmon Sperm DNA, BioDynamics Laboratory Inc.) as nucleic acid (final concentration of nucleic acid: 10 μM).
(§3) The Kd value and Hill coefficient were calculated for the mixed solutions.

For experiment [6], the target named is T2, BSA heat-denatured for 120 minutes (bovine, UniProt P02769 25-607).
T2 construct: Autoclaved at 110 C for 120 min; also called heat denaturation period 120 min
T2 sequence (P02769 25-607 limits assumed): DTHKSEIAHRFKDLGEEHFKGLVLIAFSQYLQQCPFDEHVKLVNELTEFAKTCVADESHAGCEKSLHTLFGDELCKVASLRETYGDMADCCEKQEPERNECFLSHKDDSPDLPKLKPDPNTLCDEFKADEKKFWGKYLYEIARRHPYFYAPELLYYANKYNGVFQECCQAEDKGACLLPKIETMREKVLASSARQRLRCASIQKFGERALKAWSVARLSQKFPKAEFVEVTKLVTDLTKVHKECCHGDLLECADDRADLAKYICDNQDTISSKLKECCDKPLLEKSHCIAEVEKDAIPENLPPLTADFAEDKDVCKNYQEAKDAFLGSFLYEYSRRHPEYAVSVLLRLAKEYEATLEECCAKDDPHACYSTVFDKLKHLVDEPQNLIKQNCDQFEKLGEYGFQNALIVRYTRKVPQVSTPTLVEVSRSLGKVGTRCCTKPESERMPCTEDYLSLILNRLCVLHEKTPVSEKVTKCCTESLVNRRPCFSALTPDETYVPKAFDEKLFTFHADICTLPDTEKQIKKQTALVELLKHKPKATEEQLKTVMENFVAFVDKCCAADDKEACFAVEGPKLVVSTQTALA
The experiment can be described thus: turbidity (OD550), Hill plot analysis; heat denaturation period 120 min. Here is the method: (§4) The Kd value and Hill coefficient of BSA at respective heat denaturation periods were calculated.

The target in experiment [7] is T2, BSA heat-denatured for 120 minutes. The experiment can be described thus: turbidity (OD550), BSA heat-denatured for 120 min mixed with rising concentration of the partial ACTH peptide. Here is the method:
as §4

Experiment [8] deals with T1, Heat-denatured BSA (bovine serum …). The experiment can be described thus: turbidity (OD550), Hill plot analysis; heat denaturation period 15 min. Here is the method: as §4
Experiment [9] addresses T3, Non-denatured BSA (bovine, UniProt P02769 25-607).
T3 construct: BSA solution that was not heated; also called non-denatured BSA solution; BSA heat-denatured for 0 min
The experiment is described as follows: turbidity (OD550), Hill plot analysis; heat denaturation period 0 min. Here is the method: as §4

Experiment [10] has as its target T4, BSA heat-denatured for 5 minutes (bovine, UniProt P02769 25-607).
T4 construct: Autoclaved at 110 C for 5 min; also called heat denaturation period 5 min
The experiment can be described thus: turbidity (OD550), Hill plot analysis; heat denaturation period 5 min. Here is the method: as §4

Experiment [11] addresses T3, Non-denatured BSA. The experiment is described as follows: turbidity (OD550) against peptide concentration, Hill plot analysis. Here is the method:
(§5) In this preparation, the sample was mixed so as to obtain a final concentration of the partial ACTH peptide in the mixed solution of 0 to 150 μM.
(§6) The thus-prepared mixed solutions were measured for absorbance at the wavelength of 550 nm (OD550) in a spectrophotometer UV-2500PC (Shimadzu Corporation).

Experiment [12] addresses T1, Heat-denatured BSA (bovine serum …). Described as above. Here is the method:
as §5, §6

Experiment [13] shares this target. The experiment is described as follows: turbidity (OD550), heat-denatured BSA mixed with rising concentration of the partial ACTH peptide, with salmon sperm DNA (10 µM). Here is the method: as §2, §3
The target in experiment [14] is T5, BSA heat-denatured for 60 minutes (bovine, UniProt P02769 25-607).
T5 construct: Autoclaved at 110 C for 60 min; also called heat denaturation period 60 min
T5 sequence (P02769 25-607 limits assumed): as above
The experiment is described as follows: turbidity (OD550), BSA heat-denatured for 60 min mixed with rising concentration of the partial ACTH peptide. Here is the method: as §4

In experiment [15] the target is T4, BSA heat-denatured for 5 minutes. The experiment is described as follows: turbidity (OD550), BSA heat-denatured for 5 min mixed with rising concentration of the partial ACTH peptide. Here is the method: as §4
Experiment [16] deals with T6, Heat-denatured human serum albumin (HSA) (human, UniProt P02768 25-609).
T6 construct: 1.0 w/v % HSA in ultrapure water, autoclaved at 115 C for 15 min; also called Heat-denatured HSA; denatured HSA
The experiment is described as follows: turbidity (OD550), heat-denatured HSA (0.2 w/v %) mixed with rising concentration of the partial ACTH peptide. Here is the method: (§7) In the preparation, the sample was mixed so as to obtain a final concentration of the partial ACTH peptide in the mixed solution of 0 to 80 μM.
(§8) The thus-prepared mixed solutions were measured for absorbance at the wavelength of 550 nm (OD550) with a spectrophotometer UV-2500PC (Shimadzu Corporation).

The target of experiment [17] is T1, Heat-denatured BSA (bovine serum …). The experiment is described as follows: turbidity (OD550), Hill fit with competitive inhibition term; serum at 100-fold dilution. Here is the method: (§9) In the preparation, the serum-based sample was mixed so as to adjust a final concentration of the partial ACTH peptide of to 0 to 80 μM and adjust a final concentration of serum of to an equivalent to 100-fold dilution in the mixed solution. For a control, a mixed solution was also prepared without serum (hereinafter referred to as “control solution”).
as §8

The target in experiment [18] is T5, BSA heat-denatured for 60 minutes. The experiment is described as follows: turbidity (OD550), Hill plot analysis; heat denaturation period 60 min. Here is the method: as §4
In experiment [19] the target is T1, Heat-denatured BSA (bovine serum …). The experiment can be described thus: turbidity (OD550), BSA heat-denatured for 15 min mixed with rising concentration of the partial ACTH peptide. Here is the method:
as §4

Experiment [20] has the same target. The experiment can be described thus: turbidity (OD550) of mixtures of heat-denatured BSA (0.2 w/v %) with rising concentration of the partial ACTH peptide. Here is the method:
as §5, §6

Experiment [21] has the same target. The experiment is described as follows: turbidity (OD550), Hill plot analysis; table row for nucleic acid 'Yes' (salmon sperm DNA, 10 µM); with nucleic acid (Yes). Here is the method:
as §2, §3

Experiment [22] concerns the target T7, Heat-denatured ovoalbumin (OA) (UniProt P01012 2-386).
T7 construct: 1.0 w/v % OA, pH adjusted to 5 to 7 with sodium hydroxide, autoclaved at 115 C for 15 min; also called Heat-denatured OA; denatured OA
T7 sequence (looked up): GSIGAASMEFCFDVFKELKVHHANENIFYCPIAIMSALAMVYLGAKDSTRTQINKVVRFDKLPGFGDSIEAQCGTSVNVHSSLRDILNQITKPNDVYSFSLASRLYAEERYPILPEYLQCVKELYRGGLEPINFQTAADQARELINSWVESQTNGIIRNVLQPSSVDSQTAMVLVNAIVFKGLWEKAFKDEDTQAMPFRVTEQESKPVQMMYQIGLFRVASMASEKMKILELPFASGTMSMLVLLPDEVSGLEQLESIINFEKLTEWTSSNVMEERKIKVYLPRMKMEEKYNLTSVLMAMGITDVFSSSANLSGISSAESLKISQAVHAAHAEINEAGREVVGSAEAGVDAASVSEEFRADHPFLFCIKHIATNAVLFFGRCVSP
The experiment can be described thus: turbidity (OD550), Hill plot analysis. Here is the method:
as §7, §8

The target of experiment [23] is T1, Heat-denatured BSA (bovine serum …). The experiment is described as follows: turbidity (OD550), Hill plot analysis; table row for nucleic acid 'No'. Here is the method:
as §2, §3

For experiment [24] the target is unchanged. The experiment can be described thus: turbidity (OD550), heat-denatured BSA mixed with rising peptide concentration; fitted curve of FIG. 1 superimposed.
For experiment [25] the target is unchanged. The experiment can be described thus: turbidity (OD550), Hill plot analysis; control solution without serum. Here is the method:
as §9, §8

Experiment [26] has the same target. The experiment can be described thus: turbidity (OD550), heat-denatured BSA mixed with rising concentration of the Fibrinogen α peptide.
For experiment [27] the target is unchanged. The experiment is described as follows: turbidity (OD550), heat-denatured BSA mixed with rising concentration of the Factor XIII peptide.

T1 sequence (P02769 25-607 limits assumed): as the sequence (P02769 25-607 limits assumed) above
T4 sequence (P02769 25-607 limits assumed): as the sequence (P02769 25-607 limits assumed) above
T3 sequence (P02769 25-607 limits assumed): as the sequence (P02769 25-607 limits assumed) above

As for HWESASLL (Acidic peptide from Biologica Co) [C3f (acidic peptide)], the binding result in experiment [1] is “no binding (tested: 80 µM)”.

B1: fragment of kininogen (positions 439 to 457) (peptide)
peptide: HNLGHGHKHERDQGHGHQR
notes: also called Kininogen (439-457); kininogen fragment
B1 registered a dissociation constant Kd in experiment [2] of 45 µM. Besides, the “EC50 (read off the curve)” value in experiment [3] was roughly 40 µM.

B2: α-endorphin (peptide)
peptide: YGGFMTSEKSQTPLVT
notes: Neutral comparative peptide, Peptide Institute, Inc; also called neutral peptide, α-endorphin
On to B2, for which the binding result in experiment [4] was “no binding (tested: 150 µM)”.

B3: fragment of ITIH4 (positions 611 to 642) (peptide)
peptide: GESRNRNVHSGSTFFKYYLQGAKIPKPEASFS
notes: also called ITIH4 (611-642); ITIH4 fragment
Turning to B3, the affinity in [2], expressed as Kd, was 70 µM. That is a double-digit micromolar value.

SYSMEHFRWGKPVGKKRRPVKVYP (also called basic peptide of interest) [partial ACTH peptide consisting of the amino acids of positions 1 to 24 of ACTH]: the concentration for a half-maximal effect (EC50 (read off the curve)) in experiment [5] is roughly 30 µM; in experiment [7] it was roughly 30 µM; in experiment [13], roughly 40 µM; in [14] it was roughly 30 µM; in [15], roughly 30 µM; in experiment [16], 40 to 50 µM. The “EC50 (read off the curve)” value in [19] was roughly 30 µM; in [20], roughly 30 µM; in [24], 20 to 30 µM. In addition, the Kd in experiment [6] was 33 µM; in [8] it was 30 µM; with Non-denatured BSA [9] it was 290 µM; in experiment [10], 33 µM; in the experiment with Non-denatured BSA [11], 290 µM; in experiment [12], 30 µM. In addition, the dissociation constant (Kd) in [17] stood at 29 µM; in experiment [18], 28 µM; in experiment [21] it was 30 µM; in [22], 67 µM; in experiment [23] it was 40 µM; in [25] it was 25 µM.

As for DEAGSEADHEGTHSTKRGHAKSRPV [Fibrinogen α (neutral peptide)], the binding result in experiment [26] is “no binding (tested: 80 µM)”.

AVPPNNSNAAEDDLPTVELQGVVPR [Factor XIII (acidic peptide)]: the binding result in [27] is recorded as “no binding (tested: 80 µM)”.

In general, Kd refers to the equilibrium constant for the complex coming apart. Low readings indicate tighter binding, high ones weaker binding. The EC50 (read off the curve) is the concentration at which the effect is half-maximal.
